According to patent US20140304847A1:

Target: Ku70 (endogenous full length protein of the human HEK 293 reporter cells) (UniProt P12956)
Assay: cell-based or functional assay

- fold increase of homologous recombination in 293Rab-Rep#4 reporter cells against transfection without the Ku80 fragment: 2 fold
Substance: truncated Ku80 protein, residues 427-732 of mouse Ku80, expressed from pCAG-Ku80(427-732)-bpA (from UniProt P27641 427-732)
